For assay [1], the target named is Inactivated Rabies Virus Vaccine (Rabipur®, Chiron Behring GmbH & Co.) (rabies virus). Nature of the assay: ELISA, plate coated with 1/500-diluted Rabipur, anti-human IgG Fcγ-HRP detection.
Assay [2] concerns the target CVS-11 rabies virus (rabies virus) (UniProt O92284). Nature of the assay: cell-based or functional assay.
The target of assay [3] is Inactivated Rabies Virus Vaccine (Rabipur®, Chiron Behring GmbH & Co.) (rabies virus).

Chain of UniProt O92284 (O92284 20-524): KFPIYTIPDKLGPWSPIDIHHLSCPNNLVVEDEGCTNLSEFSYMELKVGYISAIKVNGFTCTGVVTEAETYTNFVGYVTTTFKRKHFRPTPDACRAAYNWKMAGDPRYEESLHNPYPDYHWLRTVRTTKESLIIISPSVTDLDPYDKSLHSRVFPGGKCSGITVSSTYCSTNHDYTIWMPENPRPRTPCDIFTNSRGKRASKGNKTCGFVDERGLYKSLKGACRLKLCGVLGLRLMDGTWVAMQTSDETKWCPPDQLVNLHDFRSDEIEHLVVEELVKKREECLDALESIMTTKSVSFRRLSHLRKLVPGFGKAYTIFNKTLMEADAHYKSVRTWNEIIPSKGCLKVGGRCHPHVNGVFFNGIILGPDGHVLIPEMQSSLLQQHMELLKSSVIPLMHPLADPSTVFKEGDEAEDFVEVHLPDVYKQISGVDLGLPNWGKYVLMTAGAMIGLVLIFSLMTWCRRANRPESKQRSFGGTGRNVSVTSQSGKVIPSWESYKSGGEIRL

B1: Ch1A9 (antibody, V domains shown)
VH: EIQLQQTGPELVKPGASVKISCKASGYSFTDYIMLWVKQSHGKSLEWIGDIYPYYGSTSYNLKFKGKATLTVDKSSSTAYMQLNSLTSEDSAVYYCARQGGDGNYVLFDYWGQGTTLTVSS
VL: DIVMTQSQKFMSTSVGDRVSVTCKASQNVGTTVAWYQQKPGQSPKALIYSASYRYSGVPDRFTGSGSGTDFTLTISNVQSEDLAEYFCQQYNSYPFTFGSGTKLEIKR
What is called EC50 is the concentration needed to bring the measured effect to its halfway point. A lower EC50 goes with a more potent agent. Molecule B1 gave an EC50 in assay [1] of 0.052 µg/mL. In assay [2], this molecule had a Neutralization potency (IU/mg), FAVN of 533 IU/mg and a Neutralization potency (IU/mg), RFFIT of 1260 IU/mg.

B2: Ch2G11 (antibody, V domains shown)
VH: EVQLVESGGGLVKPGGSLILSCAASGFTFSGFAMSWVRQTPEKRLEWVATISSGGTYTYSPDSVMGRFTISRDNAKNTLYLQMSSLRSEDTAMYYCARRLRRNYYSMDYWGQGTSVTVSS
VL: DVVLTQAPLSLPVNIGDQASISCKSTKSLLNSDGFTYLDWYLQKPGQSPQLLIYLVSNRFSGVPDRFSGSGSGTDFTLKISRVEAEDLGIYFCFQSNYLPFTFGSGTKLEIKR
In general, IC50 refers to the point on the concentration scale where inhibition reaches its midpoint. The low end stands for greater potency in that assay, the high end for weaker potency in that assay. In assay [3], B2 had an IC50 of 0.11 µg/mL. In assay [2], this molecule returned a Neutralization potency (IU/mg), FAVN of 8310 IU/mg and a Neutralization potency (IU/mg), RFFIT of 1260 IU/mg.

B3: Hu1A9-1 (antibody, V domains shown)
VH: QVQLVQSGAEVKKPGASVKVSCKASGYSFTDYIMLWVRQAPGQRLEWIGDIYPYYGSTSYNLKFKGKATLTVDTSASTAYMELSSLRSEDTAVYYCARQGGDGNYVLFDYWGQGTLVTVSS
VL: DIQMTQSPSSLSASVGDRVTITCKASQNVGTTVAWYQQKPGKAPKALIYSASYRYSGVPSRFSGSGSGTDFTLTISSLQPEDFATYYCQQYNSYPFTFGQGTKLEIKR
As to B3, in assay [1], the EC50 was determined as 0.025 µg/mL.

B4: Hu1A9-2 (antibody, V domains shown)
VH: QVQLVQSGAEVKKPGASVKVSCKASGYSFTDYIMLWVRQAPGQRLEWIGDIYPYYGSTSYNLKFKGKATLTVDTSASTAYMELSSLRSEDTAVYYCARQGGDGNYVLFDYWGQGTLVTVSS
VL: DIQMTQSPSSLSASVGDRVTITCKASQNVGTTVAWYQQKPGKAPKVLIYSASYRYSGVPSRFSGSGSGTDFTLTISSLQPEDFATYYCQQYNSYPFTFGQGTKLEIKR
On to B4, for which the EC50 in assay [1] was determined as 0.016 µg/mL.

Source of the values: patent US20150110781A1.
